± gives the standard deviation of the averaged measurements.
Assay: total protein half-life in vivo (active degradation + dilution); higher = more stable protein
[1] = E. coli NCM3722 delta-clpP delta-lon delta-hslV, growth: N-lim chemostat, doubling time 6 h
[2] = E. coli NCM3722 delta-clpP, growth: N-lim chemostat, doubling time 6 h
[3] = E. coli NCM3722 delta-hslV, growth: N-lim chemostat, doubling time 6 h
[4] = E. coli NCM3722 delta-lon, growth: N-lim chemostat, doubling time 6 h
[5] = E. coli NCM3722 delta-smpB, growth: N-lim chemostat, doubling time 6 h
[6] = wild type E. coli NCM3722, growth: C-lim chemostat, doubling time 3 h
[7] = wild type E. coli NCM3722, growth: C-lim chemostat, doubling time 6 h
[8] = wild type E. coli NCM3722, growth: C-lim chemostat, doubling time 12 h
[9] = wild type E. coli NCM3722, growth: N-lim chemostat, doubling time 6 h
[10] = wild type E. coli NCM3722, growth: N-lim chemostat, doubling time 12 h
[11] = wild type E. coli NCM3722, growth: P-lim chemostat, doubling time 6 h
[12] = wild type E. coli NCM3722, growth: P-lim chemostat, doubling time 12 h

MATLTEDDVLEQLDAQDNLFSFMKTAHTILLQGIRQFLPSLFVDNDEEIVEYAVKPLLAQSGPLDDIDVALRLIYALGKMDKWLYADITHFSQFWHYLNEQDETPGFADDMTWDFISNVNSITRNAMLYDALKAMKFADFSVWSEARFSGMVKTALTLAVTTTLKELTP
total protein half-life in vivo [1]: 4.21 ± 0.82 h | total protein half-life in vivo [2]: 3.67 h | total protein half-life in vivo [3]: 2.45 h | total protein half-life in vivo [4]: 2.61 ± 0.36 h | total protein half-life in vivo [5]: 2.07 h | total protein half-life in vivo [6]: 2.02 h | total protein half-life in vivo [7]: > 8 h | total protein half-life in vivo [8]: 4.45 ± 0.14 h | total protein half-life in vivo [9]: 2.38 h | total protein half-life in vivo [10]: 4.18 h | total protein half-life in vivo [11]: 2.29 h | total protein half-life in vivo [12]: 3.96 ± 1 h

MATPHINAEMGDFADVVLMPGDPLRAKYIAETFLEDAREVNNVRGMLGFTGTYKGRKISVMGHGMGIPSCSIYTKELITDFGVKKIIRVGSCGAVLPHVKLRDVVIGMGACTDSKVNRIRFKDHDFAAIADFDMVRNAVDAAKALGIDARVGNLFSADLFYSPDGEMFDVMEKYGILGVEMEAAGIYGVAAEFGAKALTICTVSDHIRTHEQTTAAERQTTFNDMIKIALESVLLGDKE [P0ABP8]
total protein half-life in vivo [1]: 5.35 ± 0.52 h | total protein half-life in vivo [2]: 4.9 ± 0.79 h | total protein half-life in vivo [3]: 4.26 ± 0.18 h | total protein half-life in vivo [4]: 5.28 ± 0.12 h | total protein half-life in vivo [5]: 4.44 ± 0.086 h | total protein half-life in vivo [6]: 3.14 ± 0.25 h | total protein half-life in vivo [7]: 5.99 ± 0.48 h | total protein half-life in vivo [8]: 12.6 ± 1.4 h | total protein half-life in vivo [9]: 4.38 ± 0.34 h | total protein half-life in vivo [10]: 7.48 ± 0.6 h | total protein half-life in vivo [11]: 5.65 ± 0.38 h | total protein half-life in vivo [12]: 13.1 ± 0.34 h

MATVPTRSGSPRQLTTKQTGDAWEAQARRWLEGKGLRFIAANVNERGGEIDLIMREGRTTIFVEVRYRRSALYGGAAASVTRSKQHKLLQTARLWLARHNGSFDTVDCRFDVVAFTGNEVEWIKDAFNDHS
total protein half-life in vivo [1]: 6.46 ± 0.81 h | total protein half-life in vivo [3]: 2.03 h | total protein half-life in vivo [5]: 2.14 h | total protein half-life in vivo [7]: 2.97 h | total protein half-life in vivo [8]: 2.89 ± 0.49 h | total protein half-life in vivo [11]: 1.88 h | total protein half-life in vivo [12]: 3.74 h

MATYLIGDVHGCYDELIALLHKVEFTPGKDTLWLTGDLVARGPGSLDVLRYVKSLGDSVRLVLGNHDLHLLAVFAGISRNKPKDRLTPLLEAPDADELLNWLRRQPLLQIDEEKKLVMAHAGITPQWDLQTAKECARDVEAVLSSDSYPFFLDAMYGDMPNNWSPELRGLGRLRFITNAFTRMRFCFPNGQLDMYSKESPEEAPAPLKPWFAIPGPVAEEYSIAFGHWASLEGKGTPEGIYALDTGCCWGGTLTCLRWEDKQYFVQPSNRHKDLGEAAAS
total protein half-life in vivo [1]: 4.24 ± 0.43 h | total protein half-life in vivo [2]: 4.196 ± 0.017 h | total protein half-life in vivo [3]: 3.52 ± 0.16 h | total protein half-life in vivo [4]: 3.56 ± 0.044 h | total protein half-life in vivo [5]: 3.68 ± 0.14 h | total protein half-life in vivo [6]: 2.71 ± 0.18 h | total protein half-life in vivo [7]: 4.718 ± 0.0074 h | total protein half-life in vivo [8]: 6.99 ± 0.28 h | total protein half-life in vivo [9]: 4.03 ± 0.15 h | total protein half-life in vivo [10]: 5.76 ± 0.16 h | total protein half-life in vivo [11]: 4.83 ± 0.51 h | total protein half-life in vivo [12]: 9.31 ± 0.91 h

MAVAANKRSVMTLFSGPTDIYSHQVRIVLAEKGVSFEIEHVEKDNPPQDLIDLNPNQSVPTLVDRELTLWESRIIMEYLDERFPHPPLMPVYPVARGESRLYMHRIEKDWYTLMNTIINGSASEADAARKQLREELLAIAPVFGQKPYFLSDEFSLVDCYLAPLLWRLPQLGIEFSGPGAKELKGYMTRVFERDSFLASLTEAEREMRLGRS [P0ACA3]
total protein half-life in vivo [1]: 5.94 ± 0.21 h | total protein half-life in vivo [2]: 5.92 ± 0.064 h | total protein half-life in vivo [3]: 5.87 ± 0.5 h | total protein half-life in vivo [4]: 6.44 ± 0.27 h | total protein half-life in vivo [5]: 5.54 ± 0.15 h | total protein half-life in vivo [6]: 2.919 ± 0.029 h | total protein half-life in vivo [7]: 5.9 ± 0.62 h | total protein half-life in vivo [8]: 10.9 ± 0.67 h | total protein half-life in vivo [9]: 5.8 ± 0.29 h | total protein half-life in vivo [10]: 11.6 ± 0.58 h | total protein half-life in vivo [11]: 5.85 ± 0.11 h | total protein half-life in vivo [12]: 13.5 ± 1.2 h

MAVAMDNAILENILRQVRPLIGQGKVADYIPALATVDGSRLGIAICTVDGQLFQAGDAQERFSIQSISKVLSLVVAMRHYSEEEIWQRVGKDPSGSPFNSLVQLEMEQGIPRNPFINAGALVVCDMLQGRLSAPRQRMLEVVRGLSGVSDISYDTVVARSEFEHSARNAAIAWLMKSFGNFHHDVTTVLQNYFHYCALKMSCVELARTFVFLANQGKAIHIDEPVVTPMQARQINALMATSGMYQNAGEFAWRVGLPAKSGVGGGIVAIVPHEMAIAVWSPELDDAGNSLAGIAVLEQLTKQLGRSVY [P0A6W0]
total protein half-life in vivo [1]: 5.51 ± 0.69 h | total protein half-life in vivo [2]: 6.48 ± 0.19 h | total protein half-life in vivo [3]: 6.52 ± 0.92 h | total protein half-life in vivo [5]: 6.07 ± 0.46 h | total protein half-life in vivo [6]: 3.12 ± 0.28 h | total protein half-life in vivo [8]: 12.8 ± 0.64 h | total protein half-life in vivo [9]: 5.88 ± 1.1 h | total protein half-life in vivo [10]: 12.2 ± 1.5 h | total protein half-life in vivo [11]: 5.82 ± 0.85 h | total protein half-life in vivo [12]: 13.1 ± 0.95 h

MAVEVKYVVIREGEEKMSFTSKKEADAYDKMLDTADLLDTWLTNSPVQMEDEQREALSLWLAEQKDVLSTILKTGKLPSPQVVGAESEEEDASHAA [P0ACY9]
total protein half-life in vivo [1]: 5.68 ± 0.58 h | total protein half-life in vivo [3]: 0.932 ± 0.076 h | total protein half-life in vivo [4]: 0.8842 ± 0.0032 h | total protein half-life in vivo [5]: 2.19 ± 0.32 h | total protein half-life in vivo [6]: 0.978 ± 0.016 h | total protein half-life in vivo [7]: 1.17 ± 0.072 h | total protein half-life in vivo [8]: 1.28 h | total protein half-life in vivo [9]: 1.08 h | total protein half-life in vivo [10]: 1.8 ± 0.069 h | total protein half-life in vivo [11]: 0.976 ± 0.2 h | total protein half-life in vivo [12]: 2.4 h

MAVSAKYDEFNHWWATEGDWVEEPNYRRNGMSGVQCVERNGKKLYVKRMTHHLFHSVRYPFGRPTIVREVAVIKELERAGVIVPKIVFGEAVKIEGEWRALLVTEDMAGFISIADWYAQHAVSPYSDEVRQAMLKAVALAFKKMHSINRQHGCCYVRHIYVKTEGNAEAGFLDLEKSRRRLRRDKAINHDFRQLEKYLEPIPKADWEQVKAYYYAM
total protein half-life in vivo [1]: 5.26 ± 0.28 h | total protein half-life in vivo [2]: 1.09 h | total protein half-life in vivo [3]: 3.57 h | total protein half-life in vivo [4]: 1.15 ± 0.09 h | total protein half-life in vivo [5]: 0.534 h | total protein half-life in vivo [9]: 0.927 h | total protein half-life in vivo [11]: 0.144 h

MAVTKLVLVRHGESQWNKENRFTGWYDVDLSEKGVSEAKAAGKLLKEEGYSFDFAYTSVLKRAIHTLWNVLDELDQAWLPVEKSWKLNERHYGALQGLNKAETAEKYGDEQVKQWRRGFAVTPPELTKDDERYPGHDPRYAKLSEKELPLTESLALTIDRVIPYWNETILPRMKSGERVIIAAHGNSLRALVKYLDNMSEEEILELNIPTGVPLVYEFDENFKPLKRYYLGNADEIAAKAAAVANQGKAK
total protein half-life in vivo [1]: 5.09 ± 0.33 h | total protein half-life in vivo [2]: 5.4 ± 0.96 h | total protein half-life in vivo [3]: 5.11 ± 0.76 h | total protein half-life in vivo [4]: 5.42 ± 0.82 h | total protein half-life in vivo [5]: 4.7 ± 0.09 h | total protein half-life in vivo [6]: 3.18 ± 0.098 h | total protein half-life in vivo [7]: 6.37 ± 0.56 h | total protein half-life in vivo [8]: 10.3 ± 0.34 h | total protein half-life in vivo [9]: 4.85 ± 0.46 h | total protein half-life in vivo [10]: 8.63 ± 0.17 h | total protein half-life in vivo [11]: 6.02 ± 0.45 h | total protein half-life in vivo [12]: 12 ± 0.62 h
